One substance from PMC3828348 can be followed below.

The test system of the data set is GST-KSRP. The experiment in a line: competition. The note with it: REMSA: 50 mM Tris-HCl pH 7.0, 150 mM NaCl, 0.25 mg/ml tRNA, 0.25 mg/ml BSA, 5% glycerol, 10 min 37°C; competition: 10 mM HEPES pH 7.4, 100 mM KCl, 5 mM MgCl2 …; scale: % HuD binding remaining at equimolar KSRP.

As to GAP-43 ARE RNA (pGAP/B transcript), the binding signal was 50.
